According to the DeepSol protein solubility set:

Assay: soluble on expression in E. coli; label from the status in PepcDB or PDB records

With “MINNSFWQGKRVFVTGHTGFKGGWLSLWLQTMGATVKGYSLTAPTVPSLFETARVADGMQSEIGDIRDQNKLLESIREFQPEIVFHMAAQPLVRLSYSEPVETYSTNVMGTVYLLEAIRHVGGVKAVVNITSDKCYDNKEWIWGYRENEAMGGYDPYSNSKGCAELVTSSYRNSFFNPANYGQHGTAVATVRAGNVIGGGDWALDRIVPDILRAFEQSQPVIIRNPHAIRPWQHVLEPLSGYLLLAQKLYTDGAEYAEGWNFGPNDADATPVKNIVEQMVKYWGEGASWQLDGNAHPHEAHYLKLDCSKAKMQLGWHPRWNLNTTLEYIVGWHKNWLSGTDMHEYSITEINNYMNTK” the “soluble on expression in E. coli” value was “soluble”.

With “MSICLIAEEGADSGALSSLAERWGLVSDPNAVMALVLTTERLELRKQDEPKLGAIFVDFVAGPMAHRRRFGGGRGEAVAKAVGIKKDYLPDVVDATAGLGRDAFVLAALGCHVRMVERNPVVAALLDDGLKRGYQDAEIGPWLRERLTLLHASSMTALRDITPPPDVVYLDPMFPHKQKSALVKKEMRVFQSLVGADDDADALLEPARALAKKRVVVKRPDYAPPLAGVPAQSMLETKSHRFDFYLPVLEHHHHHH” the “soluble on expression in E. coli” value was “soluble”.

With “MKSMSEYLNLLKEAIQNVVDGGWHETKRKGNTGIGKTFEDLLEKEEDNLDAPDFHDIEIKTHETAAKSLLTLFTKSPTNPRGANTMLRNRYGKKDEYGNNILHQTVSGNRKTNSNSYNYDFKIDIDWESQVVRLEVFDKQDIMIDNSVYWSFDSLQNQLDKKLKYIAVISAESKIENEKKYYKYNSANLFTDLTVQSLCRGIENGDIKVDIRIGAYHSGKKKGKTHDHGTAFRINMEKLLEYGEVKVIV” the “soluble on expression in E. coli” value was “soluble”.

With “IVPDAQDLGKSYGIRPSFIIAQAALDSDFGEKILANKYHNLFGLLAEPGTPSITLNDSSTGKKQEKQFTHYKSWKYSMYDYLAHIKSGATGKKDSYTIMVSVKNPKTLVQKLQDSGFDNDKKYAKKMTEIIDLYDL” the “soluble on expression in E. coli” value was “not soluble”.

With “MSDTHGKFIWVELMTPDMEAAARFYGHVVGWQTKDFGSPEMPYLVLEADGKGMGGVMELTEEHKGQGIPPNWTAYVDVDDVDATAKLFADKGGAIRRPPQDIPEIGRFAVVADPYGAVLCIMTPLPMETGGFPEDMQEKKGHVGWYELFTDNVDEAMAFYGEVFGWTKDHDFDMGEMGPYRIFAHKGKAVGGIMKRMPQVPVCHWGYYFNVDGIEDAITRVSTGGGKVVNGPMEVPGESWIVNCVDPQGAYFSLVSQKK” the “soluble on expression in E. coli” value was “not soluble”.

For “MGSDKIHHHHHHMSNSELYYEELTDLSVRIALGIKNRTEPLDELSQAMTQLSQTNAIKGNAANAMKAYINEVHMTLIQTLELLLNNYEMALGKYVKGYLEVDSDESFKLIKEDFDAHKNNLSSHQSDFTSIGNKLKAISDEAEDIISLRGAGSKRLFNVAKDMGTMKEIVSNLNNKWNDYEQSDPGFNQVQDLIAQTTSLLKSTLSVPRGYSYSPGSFSKLISKDFVNAFEVNANYAQNPDNQKAFKANWNSISKNYTTDQKRMAEEAKEEAQKDGRIGLIWDAIASCCRNSACCDRSWSGFWCCSHCRWY”, the “soluble on expression in E. coli” value was “not soluble”.

For “QVVMPRPPALCQGCGHRDVYDALNKVAAEYPDARIFGDIGCYTLGALPPFRAIDSCVDMGASITMAKGASDAGVFPAIAVIGDSTFTHSGMTGLLDAVNDRANITVVISDNLTTAMTGGQDSAGTNKFEAICLGLGVEPEHVRVVVPLPKNMEEITRTIREEIEYKGVSVIIPRRECIQTLNRKLRQKKADKA”, the “soluble on expression in E. coli” value was “not soluble”.

With “MKPKPSQFKNLERMLGLKTEQLDAVKVTIELKDKILIIENPTVIKMIAQGQEIYSVIGEAKEAQKEEPKVEIKDEDVKFVMEQTGKGEQEVKEALQKANGDIAKAILLLTGQET” the “soluble on expression in E. coli” value was “soluble”.

In the case of “MTLTVSPTAARTPAEEKARFEGNKLAKRLARETTRAIADYNMIEAGDKVMVCLSGGKDSYALLDILLSLQKRAPFAFEIIAVNLDQKQPGFPPEILPGYLRALGVPFHIETQDTYSIVTRVIPEGKTMCSLCSRLRRGILYRVASELGATKIALGHHRDDILGTFFLNLFYGGKAKGMPPKLVSDDGRHTVIRPLAYVPESDLIAYAQFKQFPIIPCNLCGSQENLKRKEVGRMIQEWDRKHPGRSWNVFNALSRVVPSHLMDRDLFDFVGLKPTGVADAGGDTAFDQIDPEPDTAGPGCASDAPAGQADGMAEQRVVFR”, the “soluble on expression in E. coli” value was “not soluble”.

For “MGSDKIHHHHHHMATKSLRRQDLEVHLGSTGQVVGRLYLGSGKRSAFSYDERWLRDARFFTLSPDLLPVLSVQHPQEVFFRALEDTAPDSWGERVIRRAHARLRQQDGETPPLEPVDFLMWVDDEARVGALRLFDPHAKVYLRSGATPGHVPPLVELDKVVQAARALEAGTETARDLQYLLGQGTSLGGARPKSSVRDTDGRLALGKFPSQADRRDVIRGEVLAMHLAAKAGIKVAAARVELIGGTAVAIIRRFDRTDDGGRIPYVSAATMLQSDGRDTVHAYTELVDVLLREGADPIADIHQLWRRLVLNFLICNTDDHLRNTGFLYDSRNHGWRLSPAFDLNPMPGDRRESKTWLTEDSGPIESRDMLMEGAPYFRLAAEEAAAIWTEVAQAVGSWRVVARGLGMQGTDLVDFEPAFA”, the “soluble on expression in E. coli” value was “not soluble”.

In the case of “MSLEQYFKRFLGEENAYFDEIHKRAYSYDATKKHYLPDGVLFPRNEEDIARILKFCNENNIIVIPRGSGSGFTGGALAVNGGVVLAFEKHMNKILEIDLENLVAVVQPGVINIHLQKEVAKYGLFYPPDPASMEYSSLGGNVSENAGGMRAAKYGITKDYVMALRAVLPSGEIIRAGKRTIKDVAGYNLAGILIASEGSLAVLSELTLKLIPLPKFKKTAFAIFPSVKSAMNAVYKSLASGVSPVSMEFLDNLSIRAVESKFNKGLPIEAGAILIADVDGNVKEAIDEDLRNLEHYFLEAGASEFKIAKDEQETADIWFARRNCSQSIAMYGTLKLNEDITVPRSKLPTLLEGIDEISKKYGFKIPCFGHTGDGNVHTNVMVPDKNDKEQVKKGYEAVEEIFKLTVKLGGTLSGEHGIGLSKAPFMNLAFSEAEMNLMRNIKKAFDPNNILNPFKMGLEGHHHHHH”, the “soluble on expression in E. coli” value was “soluble”.

In the case of “MGSDKIHHHHHHMWGPPWMPDQDGNMTRESGYFQCTNRNKYSVAVDITTPEGQALIYEIAKTADVVIENYKTGSLAKYGLDYASLSELNPNIVYCSITGFGQDGPRAEEPGYDFIIQGMSGLMSITGEPDDVAGGGAQKVGVAVVDIQTGLYSTIAIQAALIARSHTGRGQYIDMSLLDVQVAALANQGMNYLASGKAPQRMGNQHPSIVPYQTFKAKDKEFIIACGNDKQFKDLCIAIGYPELLENEKFVRNQDRVKYRNELIPLLSEHFLRKTAKEWVDMIHALKVPVGVINSIEDALAEPQIVYRNLVVNIPHRLNENFQTIGSPIKLSDTPVEYHHAPPELGEHTAQILSRFKTAEELAALKEKGIIDGKIA”, the “soluble on expression in E. coli” value was “not soluble”.

With “MGSDKIHHHHHHMLTCDVFFASKNKKGEEVCGDSIKVKRESEKIVVSVSDGLGSGIKASILSTLTATIASTMLMNGLPVTDVFRTILATLPICRVRKISYSNLCSVVCDFKNNTCTVVEYEFPVVMLFKGERRVFPEKQGLEIEGKKVFVWQFRSEAGTLLLLATDGLSQAGMGTDLFPLGFGVENIEKEMKHLLKNHVSPENIVRHFVKLAEKLDQEVRGDDTLVACLNFREKRILNLFVGPPEDRKKDEEYVRTFLSLPGKKIVCGGTTGQIFERVTGKKVEIDLYTLSENSPPVGYMEGIDLMTEGIVTLTQVFRYLEGQSEELGYGAKFIVKSLLEADEINFFVGRAINPAHQNPLFSHDISLKFRLVKDIAQILREKGKIVNVQYC” the “soluble on expression in E. coli” value was “not soluble”.

With “MTDFQKQFFARLHIEEKDTVSFEDLSNIMYAMAQTVPFENLNILEKNFKEISKENLKEKILVNNRGGLCYELNPTMYYFLKDSGFDVHLVSGTVYNAANSIWAVDSGHIATVLTHHNELYLIEVGFGSYLPLAPVPFLGEVIHSATGDYRIRKEMTEKGNYILEMRKNNEFLDQSAADDWTLGYAFYIEEVDEEKANTAQKIIVEHEGSPFNKVPLIVKLTEDGHASLTKDSLTVAKNGKKTKETVTDMQYTNLLHSKFGITL” the “soluble on expression in E. coli” value was “not soluble”.

In the case of “MGSDKIHHHHHHLNLIWTNLRVPVEEDERQLPLMIARKLKVSQQSISNLRILRRSVDARKKPQLLFSYTLGFSLDIPYKEVNRVLHRVADLKPEPQIMPRPFMKPEKSLKHRPIVVGAGPAGYFAALTLAKGGYAPLVLEQGDDVETRSLKVENFWRTGQLDTESNVQFGEGGAGTFSDGKLTTRIADPRITEVLETFVEQGAPSEILFLAKAHIGTDILKIVTQRLREKIQSLGGEVRFRAKLTGLRHQNGKLVGVEVNHQEVVPAEAVILAIGHSARETYRLLLAQGVHLEQKAFAIGLRIEHPQKLINTSQYGVEFHPKLGPADYQLTYQDTTTGRGAYAFCMCPGGKVVAAASDLERLVTNGMSEYRRDTGIANSALVVTVGKGDFQREHPLAGVEFQEYWEHQAFLAGDRDYKAPAQSVRDFLAKRVTGDFPLPASYTPGIQPVELHRVLPQAVGDVLDRALLSFERKIQGFAGEMGTLTGIETRTSAPVRITRDKMGEALHIQGLFPAGEGAGYAGGIMSAAVDGIRSAEGIMAQYNPAD”, the “soluble on expression in E. coli” value was “not soluble”.

For “MGHHHHHHHHHHSSGHIDDDDKHMRGREEKAPEEPQPVKMPENNSVVEATWNDVQLEDSLGMEVGYRLIPMVDFQQDGELLGRIRSIRKKFAQDMGFLPPVVHIRDNMDLQPARYRILMKGVEIGSGDAYPGRWLAINPGTAAGTLPGEKTVDPAFGLDAIWIESALKEQAQIQGFTVVEASTVVATHLNHLIGQFSAELFGRQEAQQLLDRVSQEMPKLTEDLVPGVVTLTTLHKVLQNLLAEKVPIRDMRTILETLAEHAPLQSDPHELTAVVRVALGRAITQQWFPGNEEVQVIGLDTALERLLLQALQGGGGLEPGLADRLLAQTQEALSRQEMLGAPPVLLVNHALRPLLSRFLRRSLPQLVVLSNLELSDNRHIRMTATIGGK”, the “soluble on expression in E. coli” value was “soluble”.

For “MTLYVNLAELLGSRIENGFYRPGDRLPSVRALSVEHGVSLSTVQQAYRVLEDSGLAAPKPKSGYFVSVSRHAPALPAVGRPAQRPVDISQWDQVLDLIRVAPREAVTQLGRGMPDVTSPTLKPLMRALGQLSRHQDMPGLYYDNIYGVLRLREQVARLMLDSGCNLTANDVIITNGCHEALSASVRAICSPGDIVAVDSPSFFGAMQTLKGVGMKALEIPTDPLTGISLEALELALEQWPIKVIQLTPNCNNPLGYVMPEARKRALLTLAQRFDVAIIEDDVYGDLAYNYPRPRTIKSFDEDGRVLLCSSFSKTLAPGLRIGWVAPGRYLERVLHMKYIGTGSTAPQPQLAIADFLEGGHYEPHVRRMRTQYQRSRDQMIDWVMRYFPEGTRASRPQGSFMLWVELAEDFDTLRLNRALLDKGVQIAVGSIFSASGKYRNCMRLNYAAKSSREIESAVRIVGETIAQLIAQSD”, the “soluble on expression in E. coli” value was “not soluble”.

In the case of “MPALKKIEQSLDHLFQIEKYGKDSAFSRFIPAVYDPIKFPWQQFFEANFVDLFNGLMMHGSENVNKVFLAVFPTDDVLETFISQSTPGDLLFMHHPLVMECGDPLGRSGRGFLPIPEKYLQGIKEKQLSIYTCHVPMDFHQTHGTSISIAKALNATVVDDFAYGGPEQEPVGLICEIDETSTEALQKHLKQLFQIPYTDFEGKRHDSIKKIAIIAGCGDVVSLMKEAEEKGAEAYITGEIHCHIDNDYGRHKYSLIMDYVKETNMSLIGVSHSASEYLVKETLMYDWFKENFDVDVILLPQEKWWLMAGDPLEHHHHHH”, the “soluble on expression in E. coli” value was “not soluble”.

For “MKELRRFHLDHDFKIRDWVVVLNEIVVSRWDEVRREKVYRIGFQEFDCSDGWDIEREDGTIATVVFVKSSFDFFVWSK”, the “soluble on expression in E. coli” value was “not soluble”.

For “MGSDKIHHHHHHMKSVTVADLKADPIVQGYIEVGNRNLAAIGFTEHGLRHVGLVSNIAYNILEKLGYSERECELAAVAAYLHDIGNVINRSGHAQTGALLSAHILERHAMAPEEIAIVIGAIGNHDESDGNPVSNISAALILADKSDVHRSRVRNQDPATFDIHDRVNYAVEHSFLRVYPKDRVALEITINTEICPVMDYFEIFLARMLLCRRAASFLDTVFELKINEVKLL”, the “soluble on expression in E. coli” value was “not soluble”.

With “MKQEFVAAIEIDGTGRIHVTPGESQFPYIYREAMEVSWNESTRSLHSPVPREWSYAQWLQQIFAAASEQGVKLVLGPNTRWVNVPNELRAELTHAAAA” the “soluble on expression in E. coli” value was “soluble”.
